A short description of this data set: yeast display, Sf9 membrane polyspecificity reagent, FACS + sequencing; frameworks hold sequencing errors. In a few lines:
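Sorting gates, low and high (top ~1%), were placed on anti-HA fluorescence to track expression and on streptavidin fluorescence to track reagent binding. A clone's polyreactivity label is taken from the gate it came out of. The reagent was 10% biotinylated, detergent-solubilized Sf9 membrane, applied for 1 hour at 4 °C to galactose-induced yeast display cells.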
“QVQLVESGGGLVQSGGSLRLSCAASGITFFFNAMGWYRQAPGKERELVAPITSGGGSTYYADSVKGRFTISRENAKNTVYLQMNSLKPEDTAVYYCAAEWSYGGMDYWGQGTQVTVSS”: the “polyreactivity (PSR sort gate)” value is “low polyreactivity”.

“QDQLVESRGGLVQAGGSLRLSCAASGSIFIENTMGWYRQAPGKERELVAAISGSVGRTFYADSVKGRFTISRDNAKNTVYLQMNSLKPEDTAVYYCAAVRRTSPGWVYYWGQGTRVTVSS”: the “polyreactivity (PSR sort gate)” value is “high polyreactivity”.

For the sequence “QVQLVESGGGLVQAGGSLRLSCAASGSIFTNAMGWYRQAPGKETELVAAISYSGGSTYYADSVKGRFTISRDNAKNTVYLQMNSLKREDTAVYYCAAEAWFDGIWGDYWGQGTQVTVSS”, the “polyreactivity (PSR sort gate)” value was “high polyreactivity”.

Take “QVQLVESGGGLVQAGGSLRLSCDASGSTFSDYAMGWYRQAPGKERELVAAISDSGSGTYYADSVKGRFTISRDNAKNTVYLQMNSLKPEDTAVYYCNTDPRFAMDWGQGTQVTVSS”: the “polyreactivity (PSR sort gate)” value was “low polyreactivity”.

Take “QVQLVESVGGLDQAGGSLRLSCAASGFTFDINTMGWYRQEPGKERELVAAITYSGGSTYYADSVKGRFTISRDNAKNTVYLQMNSLKPEDTAVYYCATTWYFVASWYVAIYDYWGQGTQVTVSS”: the “polyreactivity (PSR sort gate)” value is “low polyreactivity”.

With “QVQLVESGGGLVQAGRTLRLSCAASGSTFSVYGMVWYRQAPGKERELVAINIIGGSTYYADSVKGRFTISRDNAKYTVYLQMNSLKPEDTAVFYCAADSFPSEFDYWGQGTQVTVSS”, the “polyreactivity (PSR sort gate)” value was “low polyreactivity”.

For “QVQLVESGGGLVQAGGSLRLSCAASGLTFPPNAMGWYRQAPGKEREFVAVISSGGGSTYYADSVMGRFTISRDHAKNTVYLQMNSLKPEDTAVYNCATEYQDGDTEYYYWGQGTQVTVSS”, the “polyreactivity (PSR sort gate)” value was “low polyreactivity”.

Take “QVQLVESGGGLVQAGGSLRLSCAASGSTLYRNAMGWYRQAPGKERELVAAISSSGGTTFYADSVKGRFTISGDNAKNTVYLQMNCLKPEDSAVYYCIRTARKLRTVHSSVVGLDYWGQGTQVTVSS”: the “polyreactivity (PSR sort gate)” value is “low polyreactivity”.

Turning to “QVQLVESGGGLVQAGGSLRLSCAASGNTFYINTMGWYRQAPGKEREFVAAITWSGGPTYYADSVKGRFTISRDNAKNTVYLQMNSLKPEDTAVYYCAADSRGEDYYYWGQGTQVTVSS”, the “polyreactivity (PSR sort gate)” value is reported as “high polyreactivity”.

Regarding “QVQLEESGGGLVQAGGRLRLSCAASGFIFWGNAMGWYRQAPGKERELVAGIRSLGGTTSYEDSVKGRFTISRDNAKNSVYLQINSLKPEDTAVYSCAAGYVAEFDYWGQVTQVTVSS”, the “polyreactivity (PSR sort gate)” value is given as “low polyreactivity”.

As to “QVQLVESGGGLVQAGGSLRLSCAASGSTFRHNAMGWYRDAPGTERELVATIRTSGGTTYYADSVKGRFTISRDNAKNTVYLQMNSLKPEDTAVYYCAAKYSLLRQYNRLDYWGQGTQVTVSS”, the “polyreactivity (PSR sort gate)” value is given as “low polyreactivity”.

With “QVQLVESGGGLVQAGGSLRLSCAASGRNFYYYAMGWYRQAPGKERELVAAISASGGSTYYADSVKGRFTISRDNAKNTVYLQMNSLKPEDTAVYYCAARATTSQYNYYYWGQGTQVTVSS”, the “polyreactivity (PSR sort gate)” value is reported as “high polyreactivity”.

“QVQLVESGGGLVQAGGSLRLSCAASGITVFENAMGWYRQAPGKERELVAAISYSGGSTYYADSVKGRFTISRDNAKNTVYLQMNSLKPEDTAVYYCAADWYYFLYIRNRWGYGYWGQGTQVTVSS”: the “polyreactivity (PSR sort gate)” value is “high polyreactivity”.

On to “QVQLVESGGGLVQAGGSLRLSCAASGFIFVRYAMGWYRQAPGKERELVASITRSGGSTYYADSVKGRFTISRDNAKNTVYLQMNSLKPEDTAVYYCNAGLLRRRMDYWGQGTQVTVSS”, for which the “polyreactivity (PSR sort gate)” value is given as “high polyreactivity”.

In the case of “QVQLVESGGGLVQAGGSLRLSCAASGSIFGVYDMGWYRQAPGKERELVAVINSNGGSTYYADSVKGRFTISRDNAKNTVYLQMNSLNPEDTAVYYCAADYQSYVYIGYGYWGQGTQVTVSS”, the “polyreactivity (PSR sort gate)” value is given as “low polyreactivity”.

With “QVQLVDSGGGLVQAGVSLRLSCAASGSIFRGNAMGWYRQAPVKERELVAAINKSGGSTYYADSVKGRFTISRDNAKNTVYLQMNSLKQEDTAVYYCAAVYKRLQPYGYWGQGTQVTVSS”, the “polyreactivity (PSR sort gate)” value is “high polyreactivity”.

Turning to “QLQHVESGGGLVQAGGSLRLSCAASGGIFGIYAMGWYRQAPGKESELVAAISRRGGSTYFADSVKGRFTISRDNAKNTVYLQMKSLKPADTAVYYCAAVRRGVNTSFGYRPLNYWGQGTEVTVSS”, the “polyreactivity (PSR sort gate)” value is listed as “high polyreactivity”.

“QVQLVESGGGLVQAGGSLRLSCAASGFIFGQYAMGWYRQAPGKERELVAAISWSGGRTNYADSVKGRFTISRDNAKNTVYLQMNSLKPEDTAVYYCAARKGKYPQYPYGYWGQGTQVTVSA”: the “polyreactivity (PSR sort gate)” value is recorded as “high polyreactivity”.

On to “QVQLVESGGGLVQAGGSLRLSSAASGRTLASYAIGWYRQAPGQESELVAAISKRGGGTYYADSVKGRFTISRDNAKNTVYLQMNSLKPEDTAVYYCAKGTGYKPVVTTHPMDYWGQGTQVTVSS”, for which the “polyreactivity (PSR sort gate)” value is “high polyreactivity”.

As to “QVQLVESGGGLVQAGGSLRLSCAASGRIFYNYAMGWYRQAPGKERELVAAITRRAGRTYYADSVKGRFTISRDNAKNTVYLQMNSLKPEDTAVFYCAKDEPGSSRVLYDYWGQVTQVTVSS”, the “polyreactivity (PSR sort gate)” value is listed as “low polyreactivity”.

As for “QVHLVESGGGLVEAGGSLRLSCADSGNIFAWYAMGWYRQAPGKERELVADISSLGGSTYYADSVKGRFTISRDNATNTVYLQMNSLKPEDTEVYYCAAVWYWTQDYDYWGQGTQVTVSS”, the “polyreactivity (PSR sort gate)” value is on record as “low polyreactivity”.

As to “QVQLVESGGGLVQAGGSLRLSCAASGRTFVVYAMGWYRQAPGKERELVAVIRVIGGSTNYADSVKGRFTISRDNAKNTVYLQMNSLKPEDTAVYYCAADGVVVVAADMYYWGQGTQVTVSS”, the “polyreactivity (PSR sort gate)” value is recorded as “low polyreactivity”.

With “QVQLVQSRGGLVQAGGSLRISCAASGRIFNPNAMRWDRQAPVKQRELVAAITRGGSTNYADSVKGRLTISRDNAKNTVYLQMISLQPEVSAVLYCAADFKTWYCDFDYCGQGTQVTVSS”, the “polyreactivity (PSR sort gate)” value is “high polyreactivity”.

Regarding “QVQLVESGGGLVQAGGSLRLSCAASGFTFRAYAMGWYRPAPAKERELVAAISTGGGSTYYADSVKGRFTISRDIAKHTVYLQLNSLKPEDTAVYYCNALPQRRYYYWGQGTQVTVSS”, the “polyreactivity (PSR sort gate)” value is given as “high polyreactivity”.

As for “QVQLVESGGGLVQAGGSLRLSCAASGSIFLFYALGWSRQAPGKERELVATINWSGCTTYYADSVKGRFTISRDNAKNTVYFQMNSLKPEDNAFYYCAAYSVYGRYGRTFYYWGQGTQVTVSS”, the “polyreactivity (PSR sort gate)” value is “high polyreactivity”.

Take “QVQLVESGGGLVQAGSSLRISCAASGRTLIYYAMGWYRQAPGKEREMVASINRRGDSTYYADSVKGRFTISRYNAKNTVYLQMYSLKPEDTAVYYCAKVLYGGYPENRYFVGWGREYLGQGTQVTVSS”: the “polyreactivity (PSR sort gate)” value was “high polyreactivity”.

As to “QVQLVESGGGLVQAGGSLRLSCAASGSTFKPYAMGWYRQAPGKERELVADISGRGGSTYYADSVKGRFTISRDNAKKTVYLQMNSLKPEDTAVFYCATYSSRQRKSSYYYWGQGTHVTVSS”, the “polyreactivity (PSR sort gate)” value is “high polyreactivity”.

For the sequence “QVQLVESGGGLVQAGGSHRLSCAASGFIFVRNAMGWYRQAPGKERELVAAISSSGGSTNYADSVKGRFTISRDNAKNTVYLQMNSLKPEDTAVYYCNVVTFRYYYKYGYWGQGTQVTVSS”, the “polyreactivity (PSR sort gate)” value is listed as “high polyreactivity”.

For the sequence “QVQLVESGGGLVQAGGSLRLSCAASGITFGFNAMGWYRQAPGKERELVAAITWSVGRTYYADSVKGRFTISRDTAKNTVYLQMNSLKPEDTAVYYCAKDFEAGDDYFAYDYWGQGTQVTVSS”, the “polyreactivity (PSR sort gate)” value is reported as “low polyreactivity”.

For “QVQLVESGGGLVQAGGSIRLSCAASGRIFGSYVRGWYRQGPGKESELVAAISRRGGSTYYADSVTWRFTISRDNAKNTVYLQMNSLTPEDTAVYYCAAEFSPSSNPYDYWGQGTQVTVSS”, the “polyreactivity (PSR sort gate)” value was “high polyreactivity”.

(Values after the nanobody polyreactivity screen of Harvey et al. (2022).)
